# Literature values in paper PMC11277083, “A Natural Bioactive Peptide from Pinctada fucata Pearls Can Be Used as a Potential Inhibitor of the Interaction between SARS-CoV-2 and ACE2 against COVID-19” (International Journal of Molecular Sciences, 2024).
# B1: human defensin 5 (HD5): human defensin 5 (peptide, UniProt Q01523 20-94, looked up)
# Defensin alpha 5: ESLQERADEATTQKQSGEDNQDLAISFAGNGLSALRTSGSQARATCYCRTGRCATRESLSGVCEISGRLYRLCCR
# modifications: Defensin-5
# Test system: SARS-CoV-2 pseudoparticle
# Details: pretreatment; blocking the interaction between ACE2 and the RBD
molecule,measurement,value
B1,effect on SARS-CoV-2 pseudoparticle infection,could reduce SARS-CoV-2 pseudoparticle infection
